The target of one test is GST-ATct(297–359). As to the kind of experiment: pull-down; competition: 2 pmol GST-fusion protein incubated with bovine brain CaM (2 or 10 pmol) for 30 minutes in 20 mM Tris-HCl, 70 mM NaCl, 0.1 mM CaCl2, pH 7.5, then 2 pmol Gβγ for 1 hour; glutathione-sepharose 4B beads; immunoblot with anti-Gβ. On the technique in general: A western blot detects proteins with antibodies after separation by electrophoresis.

For a further test, the target named is GST-ATi3(213–242). Described as above.
Chain of GST-ATi3(213–242) (P29754 213-242): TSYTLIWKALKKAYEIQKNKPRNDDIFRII
The target of the next test is GST-ATctN(297–324)F309A (UniProt P25095). The test is described as follows: pull-down; 50 pmol GST-fusion protein with purified bovine brain CaM (50 pmol) in 250 µl of 100 mM Tris-HCl pH 7.5 with 0.1 mM CaCl2; 4°C; glutathione-sepharose 4B beads; immunoblot with anti-CaM; for the mutants density of CaM against loaded GST-fusion protein.
Chain of GST-ATctN(297–324)F309A (P25095 297-324 F309A): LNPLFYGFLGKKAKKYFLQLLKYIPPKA
For a further test, the target named is GST-ATctN(297–324)F313A (UniProt P25095). The description is as above.
Chain of GST-ATctN(297–324)F313A (P25095 297-324 F313A): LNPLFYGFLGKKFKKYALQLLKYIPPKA
Another test has as its target GST-ATi3N(213–234)W219A (UniProt P25095). The description is as above.
For another test, the target named is AT1A receptor-eYFP (UniProt P25095). As to the kind of experiment: FRET or BRET; BRET in living HEK293 cells stably expressing AT1A receptor-eYFP and transiently RLuc-CaM, CaM-RLuc or RLuc; 5 µM coelenterazine; ratio 525 nm/460 nm; with or without W7 (20 min) and/or 100 nM Ang II.
Chain of AT1A receptor-eYFP (P25095 whole entry): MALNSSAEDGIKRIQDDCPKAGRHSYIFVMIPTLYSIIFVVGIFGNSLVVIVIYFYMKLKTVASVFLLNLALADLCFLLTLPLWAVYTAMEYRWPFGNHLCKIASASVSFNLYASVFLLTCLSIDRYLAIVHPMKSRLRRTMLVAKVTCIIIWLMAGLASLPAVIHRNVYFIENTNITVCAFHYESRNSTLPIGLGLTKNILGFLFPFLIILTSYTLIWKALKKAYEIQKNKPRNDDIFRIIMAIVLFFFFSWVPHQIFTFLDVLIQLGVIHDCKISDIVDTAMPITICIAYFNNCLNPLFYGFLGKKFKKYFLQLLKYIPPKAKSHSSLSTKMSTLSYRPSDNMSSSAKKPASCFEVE

Chain of GST-ATi3N(213–234)W219A (P25095 213-234 W219A): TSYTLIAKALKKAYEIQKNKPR

For “calmodulin purified from bovine brain (from UniProt P62157 1-149) (natural protein)”, the Gβγ bound to GST-ct with 2 pmol CaM, % of no CaM with GST-ATct(297–359) was 73%. The Gβγ bound to GST-ct with 10 pmol CaM, % of no CaM with GST-ATct(297–359) is 34%. For the same substance, the Gβγ bound to GST-i3 loop with 2 pmol CaM, % of no CaM with GST-ATi3(213–242) stood at 77%. Besides, in the test with GST-ATi3(213–242), the Gβγ bound to GST-i3 loop with 10 pmol CaM, % of no CaM was determined as 60%. Besides, the relative binding efficiency, % of wild type (% of wild type) in the test with GST-ATctN(297–324)F309A was determined as 29; with GST-ATctN(297–324)F313A, 22; with GST-ATi3N(213–234)W219A, 32.

With “CaM-RLuc (from UniProt P0DP23 1-149) (natural protein)”, the BRET ratio with the CaM inhibitor W7, % of untreated (% of non-W7-treated) with AT1A receptor-eYFP turned out to be 40.

For the origin of these results see PMC3673938, “Two Distinct Calmodulin Binding Sites in the Third Intracellular Loop and Carboxyl Tail of Angiotensin II (AT1A) Receptor” (PLoS ONE, 2013).
